Results published in the supplement of paper PMC9170038.

System: MS2 coat protein
Test: apparent KD of MS2 coat protein; designed switch direction (-1 OFF switch, 1 ON switch): -1; higher = weaker reporter binding
Method in brief: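 Designed RNA switches sharing common flanks were transcribed on Illumina chips by stalled E. coli RNA polymerase. They were titrated with SNAP-549-labelled MS2 coat protein, from 0.7 or 1.5 nM doubling to 3 µM, in Tris-HCl pH 7.5 buffer with KCl, MgCl2, BSA, DTT, tRNA and Tween-20. Titrations ran without input, with 200 uM small-molecule ligand, or with an oligonucleotide input. The apparent KD of each design is the median over its clusters, after curve-fitting of normalised cluster fluorescence.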

[1] = Eterna round: R95, input ligand: microRNA oligo, concentration not stated
[2] = input ligand: microRNA oligo, concentration not stated
[3] = Eterna round: R95, input ligand: FMN 200 uM
[4] = Eterna round: R95, input ligand: none

Sequence	apparent KD of MS2 coat protein [1] [µM]	apparent KD of MS2 coat protein [2] [µM]	apparent KD of MS2 coat protein (input ligand: FMN 200 uM) [µM]	apparent KD of MS2 coat protein (input ligand: none) [µM]	apparent KD of MS2 coat protein [3] [µM]	apparent KD of MS2 coat protein [4] [µM]
UUUUUGUCAGGAUAUGAGUAGUAGAACAAUAGUACUACUACUCAGAAGGGACAUGAGGAUCACCCAUGUUCCUC [Fiskers Ex 4 Super stable 44 mod 18] (puzzle: Exclusion 4)	0.0144					
UAUAUAUAGUAAGGAUAUGUAUUUAUUCUAUAAACAGAAGGUACUGACAUGAGGAUCACCCAUGUUUUAGUGUGGGCAUGUAGA [JMF's solution 18] (Eterna round: R96, puzzle: Exclusion NG 1)		0.033				
UCUGUUUUGCGAGGAUAUCGACCAUUCCUCUUAACAUGAGGAUCACCCAUGUGCUAAUCCUACAACGAGAAGGCGCUCAUACUC [JR_ExcNG2_Sub066] (Eterna round: R96, puzzle: Exclusion NG 2)		0.195				
GCUCGCGGGCAAGGAUAUCCUACGCUGUUCUGGCUCGUGUCUGUUACAUGAGGAUCACCCAUGUGGGAGAAGGUGCACCAGGGC [Design 47] (Eterna round: R96, puzzle: Exclusion NG 2)		0.0174	0.0249	0.0226		
UUAUUAUAUGUAGGAUAUGCGUAUUGUUGUUAUGCAGAAGGACAUGAGGAUCACCCAUGUAUAUUAUUGUUAUAUAUUAUAUAU [Title] (Eterna round: R96, puzzle: Exclusion NG 1)		0.0202	0.043	0.0253		
AAAGAUCAAGGAUAUGCAACGGCACACAUGAGGAUCACCCAUGUGAUGUACGUUGUGUCGGCAGAAGGUGAGGGUC [JR_Ex5_Sub056] (Eterna round: R97, puzzle: Exclusion 5)			0.0138	0.0143		
AGUAAUUCAAGAGGAUAUCACAUGAGGAUCACCCAUGUAUAGCGCGCUACGCUAGUCCUCGUAUUUGAGAAGGUUUGAUAAAUG [JL ViennaUCT Quve mod 1] (Eterna round: R96, puzzle: Exclusion NG 2)		0.0125	0.0144	0.0171		
ACAAGCUUUAGGCGUGUGAACAUGAGGAUCACCCAUGUAAAGUAGGUUAGGAGGUCUGUAAGGGAUGCUCGUCUUAU [JR_SWV3TOV1_Sub090] (puzzle: Sensor v3, turn-off variant 1)	0.0455				0.0894	0.113
UAUAUAUAGUAAGGAUAUGUAUUUAUUUUAUAGACAGAAGGUACUGACAUGAGGAUCACCCAUGUUUUAGUGUGGGCAUGUAGA [JMF's solution 27] (Eterna round: R96, puzzle: Exclusion NG 1)		0.0785	0.122	0.0944		
UUUCUCUGUGUGAGGAUAUACUUGUUUGGGUUUUUGUAGAAGGCACAUGAGGAUCACCCAUGUAUUUUGUCGUG [JR_BME4_Sub019] (puzzle: Brourd's mod of Exclusion 4)	0.0315					
UAAAAGCGAGGAUAUACAAACAGGUCCAAAACAUGUCUUGGACAUGAGGAUCACCCAUGUAGAAGGCGUAAAAG [Anleain] (Eterna round: R97, puzzle: Exclusion 2)			0.558	0.0906		
GUAGAGUCAGGAUAUACAAGAUCGAAAGAUCGAAGAUUUAUACAUGAGGAUCACCCAUGUAGAAGGGACUCUAC [ChP 11-04-2015 #4] (puzzle: Exclusion 2)	0.0124					
AAUAACAGAGGAUAUACUGUUUUAUGUAUUUAUUAUUUUGAACAUGAGGAUCACCCAUGUAGAAGGCUGAUUAA [JMF 48] (puzzle: Exclusion 2)	0.0296					
AGUACAUUCACGAAAGUGAAUGUACAAUAAGCUUGUGGAACAUGAGGAUCACCCAUGUCCUCAUAAGCUCGUCUUAU [Mat - Sensor v3 - Turn-off var 2 - D31] (puzzle: Sensor v3, turn-off variant 2)	0.0687				0.0161	0.0146
GACUGCCGAGGAUAUACAUGAGGAUCACCCAUGUGCUUCAGUAUCGAAAGAUGCAUGGGUAGAAGGCGGUAGUC [LRO-Excl3-10] (puzzle: Exclusion 3)	0.172					
UUUAAUUUUUUUUUUUUACAAGCUUUUUGCUCGUCUUAUACAUGAGGAUCACCCAUGUGGGUAGGAGAUAAAUUAUC [JMF 16] (puzzle: Sensor v3, turn-off variant 2)	0.0454				0.0321	0.057
GAUUAUGCGAGCUUUAGGGACAUGAGGAUCACCCAUGUUCGUCUUGUUGAUCUAGGUACGCUAACAUACCUAAAUCU [JMF 6] (puzzle: Sensor v3, turn-off variant 1)	0.0283				0.0197	0.0202
AUCUAGUCAGGAUAUACGAACCGAUGAAUCGGACGGAACGAACAUGAGGAUCACCCAUGUAGAAGGGACACUCA [Candy Rainbow 2] (puzzle: Exclusion 2)	0.142					

Sequence	apparent KD of MS2 coat protein [1] [µM]	apparent KD of MS2 coat protein [2] [µM]	apparent KD of MS2 coat protein (input ligand: FMN 200 uM) [µM]	apparent KD of MS2 coat protein (input ligand: none) [µM]	apparent KD of MS2 coat protein [3] [µM]	apparent KD of MS2 coat protein [4] [µM]
GGUUGGCGAGGAUAUACAUGAGGAUCACCCAUGUGAGAGAAAAAAGUGAGGAAGAACAGUAGAAGGCGCUGACG [salish99_ex3_r3_036] (puzzle: Exclusion 3)	0.0742				0.162	0.106
GGUUGUUGUUUCCGUUCUUACAUGAGGAUCACCCAUGUUUCUUGUCGUGCUCGCGUUGCUCGUCUGGCUGCCUGUUG [salish99_TOv1_r3_070] (puzzle: Sensor v3, turn-off variant 1)	0.0374				0.0412	0.0544
AGUCAGGCGGUAGGAUAUCCAAACCGAGUGACCCUUACAUAACAUGAGGAUCACCCAUGUCGGUGGGAGAAGGGCCGUAAGGCA [Mat - Exclusion NG 2 - Mod of JL - D67] (Eterna round: R96, puzzle: Exclusion NG 2)		0.349	0.517	0.113		
UUGCUACCUUGGUACUCUACAAGCUUUUUGCUCGUUUUAACAUGAGGAUCACCCAUGUCUAGUGGAUCUGAUCGGGU [JL ViennaUCT Isreen mod 3] (puzzle: Sensor v3, turn-off variant 2)	0.197				0.0874	0.0775
GUGUACAGAGGAUAUACACGAGUAGUUACGAAAGUAACUAUACAUGAGGAUCACCCAUGUAGAAGGCUGUACAC [Dot plot directed v2] (puzzle: Exclusion 2)	0.0145					
UCCUAACAUGAGGAUCACCCAUGUCAGGAUAUCUACGUCAGAACCACGUAUGUAGGCGAGAGAAGGGACAGAGG [EX1 C.14] (Eterna round: R97, puzzle: Exclusion 1)			0.021	0.0174		
AAUACAAGCUAUUGAUCCCACAUGAGGAUCACCCAUGUAGGAGGCGGUGACACCUCCUUUACGAUAGCUCGUCUUAU [Sensor-V1 #53] (Eterna round: R97, puzzle: Sensor, turn-off variant 1)			0.213	0.219		
GGAGAGAGGCAGGAUAUGGGAGGGAGGACCGGACCAGAAGGGUUGACAUGAGGAUCACCCAUGUAGAGAUCCUC [AK-MS2ROC-r4-exclusion6-6.8] (Eterna round: R97, puzzle: Exclusion 6)			0.563	1.14		
GAUAGAGAGCAGGAUAUCUUGGAUAAGUAUAGUAGAGAAGGGCUCACAUGAGGAUCACCCAUGUGGUCCUAGAU [JL Dibiri mod 11] (puzzle: Exclusion 6)	0.0149				0.0438	0.015
UUAAUACAUGAGGAUCACCCAUGUCAGGAUAUCCGUAUUUCUUAUAUAUAUUUCUAUCGGAGAAGGGACACAUU [lam1] (Eterna round: R97, puzzle: Exclusion 1)			0.0509	0.0454		
CAGUACAGAGGAUAUACAUGAGGAUCACCCAUGUGUUUCAGGUACGAAAGUACCGAAUGUAGAAGGCUGUACUG [jl-ex3-4.25 salish99 mod] (Eterna round: R97, puzzle: Exclusion 3)			0.244	0.0256		
CAGUACAGAGGAUAUACAUGAGGAUCACCCAUGUGUUUCAGGUACGAGAGUACCGAGUGUAGAAGGCUGUACUG [jl-ex3-4.28 salish99 mod] (Eterna round: R97, puzzle: Exclusion 3)			0.244	0.0381		
UGAUCUAGCGGAGGAUAUACAUGAGGAUCACCCAUGUAAAUCGCUGAACCGUAGUUCAGCAUCAUGUAGAAGGCCGCUAGAUCU [MOD2 ENG2 3.62 by JL] (Eterna round: R96, puzzle: Exclusion NG 2)		0.0556	0.473	0.0704		
AACAGCACAGGAUAUACAUGAGGAUCACCCAUGUGAGAAUUAAGUGGCGUACCACAAAGUAGAAGGGUGCUGGA [Mat - Exclusion 3 - JL mod - D39] (Eterna round: R96, puzzle: Exclusion 3)		0.036				
UUUACAAGCUUAAGAUCCCACAUGAGGAUCACCCAUGUUCCUGGCCGUGAGGCUAGGUAAACUUAUGCUCGUCUUAU [JL TOV1 3.68] (Eterna round: R97, puzzle: Sensor, turn-off variant 1)			0.141	0.138		
GAUUAUGCGAGCUUUAGGGACAUGAGGAUCACCCAUGUUCGUCUUAUUAGUCUAAGUGCACUGACAUACCUAAAUCU [JMF 83] (puzzle: Sensor v3, turn-off variant 1)	0.0232				0.0158	0.0166
CCCAUGUCAGGAUAUUAAUUGGACGGGAAAUCCCGCCCACUUGAGAAGGGACAUGAGGAUCACCCAUGUAAAAC [Esatedbe] (Eterna round: R97, puzzle: Exclusion 4)			0.0547	0.385		
